Laboratory results published in patent US20230149507A1, “TREATMENT OF ALT CANCERS” (INSTITUTO DE MEDICINA MOLECULAR JOÃO LOBO ANTUNES, priority 2019, published 2023).
One block for each compound: values may come before it.

Experiments:
FANCM-BTR complex = biological target: T1, FANCM-BTR complex (Homo sapiens, UniProt Q96E14+Q9H9A7); experiment: Flag-FANCM immunoprecipitation of the FANCM-BTR complex with MM2 peptides added to cellular lysates; type: binding; conditions: peptide 1-50 μM, lysates of HEK-293 cells expressing Flag-FANCM
T1 construct: expressed in transfected cells; host or cells: HEK-293
T1 sequence (Q9H9A7 1-625): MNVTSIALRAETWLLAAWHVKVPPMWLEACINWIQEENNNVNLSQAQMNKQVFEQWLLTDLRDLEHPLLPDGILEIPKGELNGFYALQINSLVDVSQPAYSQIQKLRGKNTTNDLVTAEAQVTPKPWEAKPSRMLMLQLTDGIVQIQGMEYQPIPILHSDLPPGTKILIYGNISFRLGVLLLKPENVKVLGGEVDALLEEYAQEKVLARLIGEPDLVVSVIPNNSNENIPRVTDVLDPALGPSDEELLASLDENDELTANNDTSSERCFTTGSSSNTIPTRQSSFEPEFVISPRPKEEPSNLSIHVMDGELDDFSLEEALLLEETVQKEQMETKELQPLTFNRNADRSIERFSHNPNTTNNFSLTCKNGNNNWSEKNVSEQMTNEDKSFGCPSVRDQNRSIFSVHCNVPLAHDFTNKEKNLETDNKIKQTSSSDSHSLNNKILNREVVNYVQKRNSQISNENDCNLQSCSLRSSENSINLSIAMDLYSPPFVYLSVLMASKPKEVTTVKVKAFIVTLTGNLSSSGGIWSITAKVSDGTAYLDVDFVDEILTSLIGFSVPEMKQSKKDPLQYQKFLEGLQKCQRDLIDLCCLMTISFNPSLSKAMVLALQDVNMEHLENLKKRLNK
T1 sequence (Q96E14 2-147 limits assumed): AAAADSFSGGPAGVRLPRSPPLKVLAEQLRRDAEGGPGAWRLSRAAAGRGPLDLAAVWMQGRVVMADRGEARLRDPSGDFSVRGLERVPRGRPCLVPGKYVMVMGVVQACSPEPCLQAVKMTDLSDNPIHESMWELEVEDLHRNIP
T1 sequence (Q13472 1-1001 partner): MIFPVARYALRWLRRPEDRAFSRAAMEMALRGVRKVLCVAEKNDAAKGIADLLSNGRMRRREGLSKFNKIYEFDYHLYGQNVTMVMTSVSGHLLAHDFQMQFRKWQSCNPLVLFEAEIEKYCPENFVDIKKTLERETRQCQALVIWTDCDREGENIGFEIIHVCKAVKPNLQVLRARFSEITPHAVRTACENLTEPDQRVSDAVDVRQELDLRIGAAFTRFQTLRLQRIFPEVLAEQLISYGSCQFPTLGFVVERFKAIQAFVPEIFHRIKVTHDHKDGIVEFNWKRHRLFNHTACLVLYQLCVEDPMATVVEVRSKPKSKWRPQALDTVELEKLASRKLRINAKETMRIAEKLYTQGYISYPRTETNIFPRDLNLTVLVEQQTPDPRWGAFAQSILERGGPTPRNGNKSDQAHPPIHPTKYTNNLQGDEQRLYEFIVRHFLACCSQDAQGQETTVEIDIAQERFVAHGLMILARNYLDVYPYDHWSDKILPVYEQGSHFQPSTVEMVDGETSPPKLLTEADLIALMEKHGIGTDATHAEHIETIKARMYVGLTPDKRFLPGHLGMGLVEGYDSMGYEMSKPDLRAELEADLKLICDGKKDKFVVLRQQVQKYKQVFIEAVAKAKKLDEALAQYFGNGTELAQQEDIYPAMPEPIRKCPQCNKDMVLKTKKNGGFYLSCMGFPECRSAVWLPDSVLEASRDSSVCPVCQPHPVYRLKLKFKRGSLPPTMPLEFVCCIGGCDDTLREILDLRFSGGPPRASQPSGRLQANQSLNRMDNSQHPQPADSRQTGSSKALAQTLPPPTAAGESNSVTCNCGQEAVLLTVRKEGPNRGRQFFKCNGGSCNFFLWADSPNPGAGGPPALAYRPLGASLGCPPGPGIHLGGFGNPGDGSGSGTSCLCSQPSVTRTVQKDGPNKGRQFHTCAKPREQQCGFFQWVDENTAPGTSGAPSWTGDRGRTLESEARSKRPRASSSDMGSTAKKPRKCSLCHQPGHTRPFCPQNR
From the text: FIG. 10. Characterization of the MM2-ER fusion protein. (a) Schematic showing competitive inhibition of FANCM-BTR complex formation by the MM2 peptide. […] (c) Representative mitotic spreads showing sister-chromatid exchanges (SCEs) in U-2 OS cells expressing MM2-ER or FF>AA-ER mutant fusion proteins in the presence or absence of 40HT (left panel). Quantitation of SCEs (right panel). (d) Representative mitotic spreads showing sister-chromatid exchanges (SCEs) in HeLa cells expressing MM2-ER or FF>AA-ER mutant fusion proteins in the presence or absence of 40HT (left panel). Quantitation of SCEs (right panel). SCEs are indicated by black arrows. For c and d, scatterplot bars represent the mean±SEM number of SCEs from 15-30 mitotic spreads, *p<0.05, **p<0.005, Mann-Whitney test. NB: The frequency of double labelled mitoses in MM2-ER+4OHT samples was approximately 10% of that in the controls, likely due to significant cell cycle delays introduced by activation of the MM2-inhibitor. As thus, SCE levels are likely underestimated in this experiment.
For co-IP experiments involved the ER-inducible system, cells were lysed in IP buffer (20 mM Tris-HCl pH 7.5, 100 mM NaCl, 10% (v/v) glycerol, 0.5 mM EDTA, 1 mM DTT) supplemented with 1× mammalian protease inhibitor cocktail (Sigma Aldrich) and 50 U/ml Benzonase (Novagen) for 2 h at 4° C., with or without MM2 peptide variants (Mimotopes). Following lysis, NaCl concentration was increased to 250 mM, then the lysate cleared at 16,000×g for 15 mins. Supernatant was then mixed with 1 μg of α-FANCM (Abcam) or α-ER (Santa Cruz Biotechnology) and 20 μl protein G sepharose (GE Healthcare), or using α-Flag M2 agarose (Sigma Aldrich). Following 3 h of mixing at 4° C., beads were washed 4× with IP buffer, and 1× with 50 mM NH4(CO3)2, 0.5 mM EDTA, then eluted with 500 mM NH4OH (pH 11.0), 0.5 mM EDTA. Samples were then lyophilized and resuspended in 1×LDS loading buffer (Life Technologies) prior to immunoblotting.

HeLa cells = experiment: FACS cell cycle analysis of FANCM-depleted HeLa cells with added agents; type: cell-based, human; conditions: HeLa cells depleted for FANCM; 20 μM BIBR 1532 for 7 days
Protocol: When indicated, cells were incubated with 1 μM camptothecin (Sigma-Aldrich) for 3 hours, 0.2 mM hydroxyurea (Sigma-Aldrich) for 16 h, 20 μM BIBR 1532 (Merck Millipore) for 7 days, and 10 μM RO-3306 (Selleckchem) for 18 h. […] For fluorescence-activated cell sorting, cells were trypsinized and pelleted by centrifugation at 500 g at 4° C. for 5 min. Cell pellets were either left untreated for viability assays or fixed in 70% ethanol at −20° C. for 30 min and treated with 25 μg/ml RNaseA (Sigma-Aldrich) in 1×PBS at 37° C. for 20 min. Cells were then washed in 1×PBS and stained with 20 μg/ml propidium iodide (Sigma-Aldrich) in 1×PBS at 4° C. for 10 min. Flow cytometry was performed on a BD FACSCalibur or a BD Accuri C6 (BD Biosciences). Data were analyzed using FlowJo software.

U-2 OS ALT cells = experiment: Metaphase-TIFs after FANCM knockdown with siRNA; type: cell-based, human; conditions: compared to the scrambled control; siRNA 30 nM, 72 h
From the text: (a) Representative images of telomere (green) and γ-H2AX (red) colocalizations on metaphase spreads (meta-TIFs) in U-2 OS cells with or without FANCM depletion (left panel). Meta-TIFs are indicated by white arrows. Scale bars are 5 μm. Quantitation of TIFs (right panel). Scatterplot bars represent the mean±SEM. Out of 3 experiments, n≥81 metaphases scored per treatment, **p<0.005, Mann-Whitney test. (b) Native and denatured TRF analysis of U-2 OS cells with or without FANCM depletion. Colored arrows correspond to telomeric DNA species depicted in panel c. (c) Schematic of migration patterns for indicated telomeric species separated by two-dimensional gel electrophoresis (top panel). Two-dimensional TRF analysis of U-2 OS cells with or without FANCM depletion, hybridized under native and denatured conditions to detect the telomeric C-strand and G-strand (left and right panels). Colored arrows correspond to telomeric DNA species depicted in schematic. (d) Representative dot blot and quantitation of C-circle assays of U-2 OS cells with or without FANCM depletion. C-circle levels were normalized to the mean of scrambled control. Error bars represent the mean±SEM from n=3 experiments, *p<0.05, **p<0.005, Student's t-test. […] Out of 3 experiments, n≥150 cells scored per treatment, *p<0.05, **p<0.005, Mann-Whitney test. […]

FANCM-BTR complex formation (TOP3A binding) (FANCM-BTR complex): unable to inhibit complex formation
Compound: MM2 peptide containing the FF>AA mutant: MM2 peptide containing the FF>AA mutant (SEQ ID NO: 30) that does not bind to BTR (EDIFDCSRDLFSVTADLGACSPDSDDEILEHTSD; mutated FANCM peptide) [reference compound]

Compound: C/C(=C\C(=O)Nc1ccccc1C(=O)O)c1ccc2ccccc2c1 [BIBR 1532]
accumulation in G2/M (HeLa cells): did not accumulated in G2/M

Compound: siFANCM1: Silencer Select siRNA FANCM1 (s33619) (SEQ ID NO: 12) (GCUCGUUCUUUGAUUCAGA; listed as RNA, chemistry not given here)
metaphase-TIFs (meta-TIFs) (U-2 OS ALT cells): significant increase in metaphase-TIFs

Compound: MM2 peptide: chemically synthesized peptide (SEQ ID NO: 29) corresponding to the highly conserved 28 amino acids of the MM2 domain (EDIFDCSRDLFSVTFDLGFCSPDSDDEILEHTSD; wildtype FANCM MM2 peptide)
FANCM-BTR complex formation (TOP3A binding) (FANCM-BTR complex): dose-dependent inhibition of FANCM-BTR complex formation
FANCM-BTR complex formation (TOP3A binding) (FANCM-BTR complex; listed as MM2-WT): diminishes with increasing concentrations
